This note sets out measurements from patent publication US20190263918A1 (SHANGHAI JIAO TONG UNIVERSITY SCHOOL OF MEDICINE, published 2019).

Numbering of substitutions follows the chain as printed.

Broadly, the EC50 (read off the curve) is the concentration at which the effect is half-maximal.

To fix the notation:
T1: human FcγRIIA-R131 extracellular domain protein (human, UniProt P12318 34-217)
T1 construct: extracellular domain; SPR: His-tagged, immobilised; ELISA: biotinylated; also called hFcγRIIA-R131; CD32a
T1 sequence (looked up): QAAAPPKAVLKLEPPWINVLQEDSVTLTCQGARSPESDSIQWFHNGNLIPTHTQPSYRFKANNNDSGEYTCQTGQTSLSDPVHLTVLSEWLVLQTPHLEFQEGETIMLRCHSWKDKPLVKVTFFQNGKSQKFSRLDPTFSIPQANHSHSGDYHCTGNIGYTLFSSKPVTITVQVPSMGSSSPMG

T2: recombinant murine CD40 protein (murine, UniProt P27512 24-193, limits assumed)
T2 construct: Bought; coated on the ELISA plate; also called mouse CD40; mCD40
T2 sequence (looked up): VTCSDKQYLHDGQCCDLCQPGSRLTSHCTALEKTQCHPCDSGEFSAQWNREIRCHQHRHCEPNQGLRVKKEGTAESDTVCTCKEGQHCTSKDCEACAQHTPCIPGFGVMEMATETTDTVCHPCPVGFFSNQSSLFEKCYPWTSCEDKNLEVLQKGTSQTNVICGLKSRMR

T3: murine DR5 on MC38 cells (murine, UniProt Q9QZM4 53-381)
T3 construct: whole, on cells; also called mDR5
T3 sequence (looked up): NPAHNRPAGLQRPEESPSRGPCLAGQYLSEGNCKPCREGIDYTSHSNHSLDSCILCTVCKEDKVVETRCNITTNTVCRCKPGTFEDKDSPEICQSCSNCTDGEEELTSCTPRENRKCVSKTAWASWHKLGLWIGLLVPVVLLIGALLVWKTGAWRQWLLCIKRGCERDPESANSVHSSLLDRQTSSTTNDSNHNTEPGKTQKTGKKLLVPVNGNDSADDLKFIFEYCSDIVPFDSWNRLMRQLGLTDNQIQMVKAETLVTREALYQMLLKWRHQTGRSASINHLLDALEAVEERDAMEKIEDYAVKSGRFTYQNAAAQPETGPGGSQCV

B1: Anti-hCD40-hIgG1(V11) (antibody)
heavy: not shown
light: DIQMTQSPSSVSASVGDRVTITCRASQGIYSWLAWYQQKPGKAPNLLIYTASTLQSGVPSRFSGSGSGTDFTLTISSLQPEDFATYYCQQANIFPLTFGGGTKVEIKRTVAAPSVFIFPPSDEQLKSGTASVVCLLNNFYPREAKVQWKVDNALQSGNSQESVTEQDSKDSTYSLSSTLTLSKADYEKHKVYACEVTHQGLSSPVTKSFNRGEC
notes: Human anti-human CD40 antibody, heavy chain constant region V11(H1)
B2: Anti-hCD40-hIgG2-SELF (antibody)
heavy: not shown
light: B1 light
notes: Human anti-human CD40 antibody, heavy chain constant region G2-SELF, i.e. JAC3; also called anti-human CD40 antibody comprising JAC3
B3: Anti-hCD40-hIgG2-HDPG (antibody)
heavy: not shown
light: B1 light
notes: Human anti-human CD40 antibody, heavy chain constant region G2-HDPG, i.e. JAC4; also called anti-human CD40 antibody comprising JAC4
B4: Anti-hCD40-hIgG2-SE (antibody)
heavy: not shown
light: B1 light
notes: Human anti-human CD40 antibody, heavy chain constant region G2-SE
B5: Anti-mCD40-hIgG1 (antibody)
heavy: not shown
light: DTVLTQSPALAVSPGERVTISCRASDSVSTLMHWYQQKPGQQPKLLIYLASHLESGVPARFSGSGSGTDFTLTIDPVEADDTATYYCQQSWNDPWTFGGGTKLELKRTVAAPSVFIFPPSDEQLKSGTASVVCLLNNFYPREAKVQWKVDNALQSGNSQESVTEQDSKDSTYSLSSTLTLSKADYEKHKVYACEVTHQGLSSPVTKSFNRGEC
notes: Chimeric anti-murine CD40 antibody, heavy chain constant region G1
B6: Anti-mCD40-hIgG2(V11) (antibody)
heavy: EVQLVESDGGLVQPGRSLKLPCAASGFTFSDYYMAWVRQAPTKGLEWVASISYDGSSTYYRDSVKGRFTISRDNAKSTLYLQMDSLRSEDTATYYCGRHSSYFDYWGQGVMVTVSSASTKGPSVFPLAPCSRSTSESTAALGCLVKDYFPEPVTVSWNSGALTSGVHTFPAVLQSSGLYSLSSVVTVPSSNFGTQTYTCNVDHKPSNTKVDKTVERKCCVECPPCPAPELLGDDSVFLFPPKPKDTLMISRTPEVTCVVVDVSDEDGEVKFNWYVDGVEVHNAKTKPREEQYNSTYRVVSVLTVLHQDWLNGKEYKCKVSNKALPRPIEKTISKAKGQPREPQVYTLPPSRDELTKNQVSLTCLVKGFYPSDIAVEWESNGQPENNYKTTPPVLDSDGSFFLYSKLTVDKSRWQQGNVFSCSVMHEALHNHYTQKSLSLSPGK
light: B5 light
notes: Chimeric anti-murine CD40 antibody, heavy chain constant region V11(H2), i.e. JAC1; also called anti-murine CD40 antibody comprising JAC1
B7: Anti-mCD40-hIgG1(V11) (antibody)
heavy: EVQLVESDGGLVQPGRSLKLPCAASGFTFSDYYMAWVRQAPTKGLEWVASISYDGSSTYYRDSVKGRFTISRDNAKSTLYLQMDSLRSEDTATYYCGRHSSYFDYWGQGVMVTVSSATTKGPSVFPLAPSSKSTSGGTAALGCLVKDYFPEPVTVSWNSGALTSGVHTFPAVLQSSGLYSLSSVVTVPSSSLGTQTYICNVNHKPSNTKVDKRVEPKSCDKTHTCPPCPAPELLGDDSVFLFPPKPKDTLMISRTPEVTCVVVDVSDEDGEVKFNWYVDGVEVHNAKTKPREEQYNSTYRVVSVLTVLHQDWLNGKEYKCKVSNKALPRPIEKTISKAKGQPREPQVYTLPPSRDELTKNQVSLTCLVKGFYPSDIAVEWESNGQPENNYKTTPPVLDSDGSFFLYSKLTVDKSRWQQGNVFSCSVMHEALHNHYTQKSLSLSPGK
light: B5 light
notes: Chimeric anti-murine CD40 antibody, heavy chain constant region V11(H1)
B8: Anti-mDR5-hIgG2 (antibody)
heavy: QIQLQESGPGLVKPAQSLSLTCSITGFPITAGGYWWTWIRQFPGQKLEWMGYIYSSGSTNYNPSIKSRISITRDTAKNQFFLQLNSVTTEEDTAIYYCARAGTSYSGFFDSWGQGTLVTVSSASTKGPSVFPLAPCSRSTSESTAALGCLVKDYFPEPVTVSWNSGALTSGVHTFPAVLQSSGLYSLSSVVTVPSSNFGTQTYTCNVDHKPSNTKVDKTVERKCCVECPPCPAPPVAGPSVFLFPPKPKDTLMISRTPEVTCVVVDVSHEDPEVQFNWYVDGVEVHNAKTKPREEQFNSTFRVVSVLTVVHQDWLNGKEYKCKVSNKGLPAPIEKTISKTKGQPREPQVYTLPPSREEMTKNQVSLTCLVKGFYPSDIAVEWESNGQPENNYKTTPPMLDSDGSFFLYSKLTVDKSRWQQGNVFSCSVMHEALHNHYTQKSLSLSPGK
light: DIQVTQSPSLLSASFGDKVTINCLVTQDITYYLSWYQQKSGQPPTLLIYNGNSLQSGVPSRFSGQYSGRTFTLSLSSLEPEDAGTYYCLQHYSVPFTFGGGTRLEIKRTVAAPSVFIFPPSDEQLKSGTASVVCLLNNFYPREAKVQWKVDNALQSGNSQESVTEQDSKDSTYSLSSTLTLSKADYEKHKVYACEVTHQGLSSPVTKSFNRGEC
notes: Chimeric anti-murine DR5 antibody, heavy chain constant region G2; also called Anti-mDR5-IgG2
B9: Anti-mDR5-hIgG1(V11) (antibody)
heavy: QIQLQESGPGLVKPAQSLSLTCSITGFPITAGGYWWTWIRQFPGQKLEWMGYIYSSGSTNYNPSIKSRISITRDTAKNQFFLQLNSVTTEEDTAIYYCARAGTSYSGFFDSWGQGTLVTVSSATTKGPSVFPLAPSSKSTSGGTAALGCLVKDYFPEPVTVSWNSGALTSGVHTFPAVLQSSGLYSLSSVVTVPSSSLGTQTYICNVNHKPSNTKVDKRVEPKSCDKTHTCPPCPAPELLGDDSVFLFPPKPKDTLMISRTPEVTCVVVDVSDEDGEVKFNWYVDGVEVHNAKTKPREEQYNSTYRVVSVLTVLHQDWLNGKEYKCKVSNKALPRPIEKTISKAKGQPREPQVYTLPPSRDELTKNQVSLTCLVKGFYPSDIAVEWESNGQPENNYKTTPPVLDSDGSFFLYSKLTVDKSRWQQGNVFSCSVMHEALHNHYTQKSLSLSPGK
light: B8 light
notes: Chimeric anti-murine DR5 antibody, heavy chain constant region V11(H1)
B10: Anti-mDR5-IgG2(V11) (antibody)
heavy: QIQLQESGPGLVKPAQSLSLTCSITGFPITAGGYWWTWIRQFPGQKLEWMGYIYSSGSTNYNPSIKSRISITRDTAKNQFFLQLNSVTTEEDTAIYYCARAGTSYSGFFDSWGQGTLVTVSSASTKGPSVFPLAPCSRSTSESTAALGCLVKDYFPEPVTVSWNSGALTSGVHTFPAVLQSSGLYSLSSVVTVPSSNFGTQTYTCNVDHKPSNTKVDKTVERKCCVECPPCPAPELLGDDSVFLFPPKPKDTLMISRTPEVTCVVVDVSDEDGEVKFNWYVDGVEVHNAKTKPREEQYNSTYRVVSVLTVLHQDWLNGKEYKCKVSNKALPRPIEKTISKAKGQPREPQVYTLPPSRDELTKNQVSLTCLVKGFYPSDIAVEWESNGQPENNYKTTPPVLDSDGSFFLYSKLTVDKSRWQQGNVFSCSVMHEALHNHYTQKSLSLSPGK
light: B8 light
notes: Chimeric anti-murine DR5 antibody, heavy chain constant region V11(H2), i.e. JAC1
B11: Anti-mDR5-hIgG1-GASDALIE (antibody)
heavy: B9 heavy with G241A, D242G, D243P, S244D, D273H, G276P, R335L, I337E
light: B8 light

The first assay concerns the target T1, human FcγRIIA-R131 extracellular domain …. As to the kind of experiment: ELISA: plate coated with the anti-human CD40 antibody, biotinylated human FcγRIIA-R131 extracellular domain, streptavidin-HRP, A650 [lower FcγRIIA-R131 panel]. On the procedure:
The ELISA plate was coated with 100 μL antibody at an appropriate concentration overnight, supernatant being discarded. The plate was blocked with 1% BSA in PBS for 2 hours, followed by washing with PBST (PBS with 0.05% Tween 20). Then, biotinylated FcγR extracellular domain protein (Sino Biologic Inc., Beijing China) at a concentration as appropriate was added and incubated at room temperature for 1 hour, supernatant being discarded, followed by PBST wash. Streptavidin-HRP (BD Biosciences) was added and incubated at room temperature for 1 hour for detection of biotin protein. After removal of supernatant, developing solution was added to react for 20-40 minutes, and absorbance was determined at 650 nm (A650).
(An ELISA detects its analyte on a solid surface through an enzyme-linked reagent.)
Consider B1, for which the binding result is “binds”. The same measure, in the same setting: to B2 belongs “binds”. Regarding B3, the binding result was “binds”. Still for that read-out and setting: the value for B4 was “binds”.

The next assay deals with T2, recombinant murine CD40 protein. In words: ELISA: plate coated with recombinant murine CD40, antibody in gradient dilutions, HRP-labelled goat anti-human IgG-Fc secondary antibody, A650. The protocol: For assay on anti-human CD40 antibodies, an ELISA plate was coated with recombinant human CD40 protein (Novoprotein Scientific Inc.) overnight at atmospheric temperature, blocked using 1% BSA at room temperature for 2 h, and then washed three times with PBST (0.05% Tween 20 in PBS). To each well was added […] gradient dilutions of the human agonistic CD40 antibody. The plate was incubated at room temperature for 1 h and washed four times with PBST. Then, 100 ng/ml biotinylated secondary antibody against human Igκ light chain was added, incubated at room temperature for 1 h and washed 4 times with PBST. SAV-HRP at an appropriate concentration was added, incubated at room temperature for 1 h. Then, chromogenic substrate was added to react for 5 minutes, and optical absorbance was determined at 650 nm.
For assay on anti-murine CD40 antibodies, the process was the same, expect that the plate was coated with recombinant murine CD40 protein (Novoprotein Scientific Inc.) and HRP-labeled goat anti-human IgG-Fc antibody was used as the secondary antibody.
Consider B5, for which the “EC50 (read off the curve)” value is around 0.1 µg/mL. For B6, the concentration giving a half-maximal response (EC50 (read off the curve)) is around 0.1 µg/mL. With B7, the “EC50 (read off the curve)” value was around 0.1 µg/mL.

The next assay deals with T3, murine DR5 on MC38 cells. As to the kind of experiment: flow cytometry on MC38 cells, FITC goat anti-human antibody. The protocol: To detect the DR5 binding capacity of different anti-DR5 antibodies, MC38 cells were resuspended in ice-cold FACS buffer (PBS+0.5% FBS+2 mM EDTA+0.1% NaN3), to which 3.16-fold gradient dilutions of control and anti-DR5 antibody at concentrations ranging from 2 ng to 20 µg/mL were added, and the reaction was incubated at room temperature for 15 minutes. The system was washed twice with ice-cold FACS buffer, then flow-cytometry stained using FITC-labeled goat anti-human antibody (VECTOR FI-3080) on ice for 25 minutes in dark, which was then washed twice with FACS buffer and analyzed by flow-cytometry. For the antibodies, the DR5 binding capacity was positively correlated to FITC mean fluorescence intensity (MFI).
Take B8: the binding result is reported as “binds”. On the same count and under the same terms, to B9 belongs “binds”; to B10, “binds”; to B11, “binds”.
